Results on 1 substance are retold here after paper PMC11484861 (Nature Communications, 2024).

The test concerns the target GFP-PDPK1 (human (cloned from HEK293T cells)) (UniProt O15530). The test can be described thus: MST.

Chain of GFP-PDPK1 (human (cloned from HEK293T cells)) (O15530 whole entry): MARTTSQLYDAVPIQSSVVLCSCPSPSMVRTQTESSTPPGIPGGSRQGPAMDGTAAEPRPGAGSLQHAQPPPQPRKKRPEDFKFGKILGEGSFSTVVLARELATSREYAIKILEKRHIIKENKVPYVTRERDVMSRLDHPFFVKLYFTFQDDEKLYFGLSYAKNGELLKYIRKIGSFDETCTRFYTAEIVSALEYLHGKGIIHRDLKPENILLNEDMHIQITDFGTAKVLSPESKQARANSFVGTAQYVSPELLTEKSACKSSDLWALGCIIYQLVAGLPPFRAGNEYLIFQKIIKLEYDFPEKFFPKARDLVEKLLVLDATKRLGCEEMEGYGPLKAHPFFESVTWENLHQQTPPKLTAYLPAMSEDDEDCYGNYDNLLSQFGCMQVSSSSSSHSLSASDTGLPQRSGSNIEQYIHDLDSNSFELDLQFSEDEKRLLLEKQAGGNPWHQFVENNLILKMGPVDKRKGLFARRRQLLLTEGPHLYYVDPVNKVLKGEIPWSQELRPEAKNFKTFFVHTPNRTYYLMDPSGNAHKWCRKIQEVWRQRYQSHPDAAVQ

By Kd is commonly meant the concentration at which binding is half-saturated. Regarding “unlabeled MΔβ3-5 (MST ligand) (from UniProt P0DTC5 1-222) (domain or fragment)”, the Kd was determined as 37.8 µM.
